The sequences below were run against Hck (UniProt P08631) (assay: phosphorylation enrichment, bacterial display (enrichment ratio); higher = better substrate or ligand; peptides without Tyr show the background).
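Note: 11-residue human phosphosite peptides and single-mutation variants displayed on the E. coli surface, counted by deep sequencing, each peptide's frequency after selection divided by its frequency in the unselected input library; frequency after pTyr selection over input frequency; kinase dosed for 20-30% of maximal phosphorylation in three min.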

Chain of Hck (P08631 whole entry, looked up): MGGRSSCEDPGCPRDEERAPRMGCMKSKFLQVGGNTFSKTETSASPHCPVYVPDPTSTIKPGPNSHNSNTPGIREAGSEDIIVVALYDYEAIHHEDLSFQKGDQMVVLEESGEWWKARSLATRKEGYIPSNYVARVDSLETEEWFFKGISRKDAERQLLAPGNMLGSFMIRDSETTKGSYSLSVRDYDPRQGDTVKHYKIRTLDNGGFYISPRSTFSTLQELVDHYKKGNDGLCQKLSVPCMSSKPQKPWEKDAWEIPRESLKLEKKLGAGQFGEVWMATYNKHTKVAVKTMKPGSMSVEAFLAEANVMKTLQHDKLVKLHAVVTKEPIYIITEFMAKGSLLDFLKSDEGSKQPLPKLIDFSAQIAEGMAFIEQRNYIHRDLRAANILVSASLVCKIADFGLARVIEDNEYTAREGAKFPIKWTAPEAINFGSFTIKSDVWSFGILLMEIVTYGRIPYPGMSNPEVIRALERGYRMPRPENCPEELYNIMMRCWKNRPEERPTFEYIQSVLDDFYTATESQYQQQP

Sequence | phosphorylation enrichment
GFKVRYATGSI [FGFR1_Y210_W213G_YF] | 0.44
KLADMYGGGKD [CDH1_Y876_E880K] | 0.476
HTKKNYGNSSV [HDX_Y197_A193T] | 0.462
TCFDKYTGSTF [FN1_Y101_N104S_YF] | 0.51
ECKASYPGKIT [PRSS3_Y232] | 0.323
GMAHNYRNSSQ [AASS_Y188] | 0.414
EFITRYIASLK [PSMA7_Y110_YF] | 0.436
RKLVDYDSAQH [BIN1_Y150_R154Q] | 0.668
KALKQYRASPS [DDX27_Y763_G766S] | 0.318
DEQKKYYNAMK [SCN5A_Y1494_E1489D] | 0.458
GDLTDYLMKIL [ACTA1_Y190_R185G] | 0.453
ISIFYYAKGQP [MPZ_Y82_H81Y] | 0.429
QNTGDYYDLYG [PTPN11_Y62] | 4.7
PAVGIYNDNIN [CDCP1_Y707] | 1.17
KAEELYIGVTV [EFHC2_Y509] | 2.75
QNTGDYCDLFG [PTPN11_Y62_Y63C_YF] | 0.696
ETGEPYRLSPE [EIF4G1_Y311] | 0.631
MTYVFYRENLR [NLRP14_Y443] | 1.03
LAVGDYMRRQK [ATM_Y1915_V1913G] | 0.504
ADKAAYLQNLN [MYH1_Y389] | 0.61
RKQQLYIAMEE [CCDC39_Y593_T594I] | 0.431
CTTIHYNFMHN [TP53_Y234_C238H_YF] | 0.517
NVTRKYTRQIL [MAP3K2_Y463] | 0.265
KVDKEYEVHVR [GHR_Y226_R229H] | 0.497
SDFSRYARTSI [TERT_Y949_S948R_YF] | 0.484
GEDLSYGDLPP [IRS1_Y151_V154L] | 0.564
GKGGSYSKAEW [HLA-E_Y341] | 0.416
QNTGDDYDLYG [PTPN11_Y62_Y62D] | 1.86
KIRDWYQRQRP [KRT14_Y151] | 0.38

What follows are sequences tested against Jak2 (UniProt O60674) in the same assay as above.
Chain of Jak2 (O60674 whole entry, looked up): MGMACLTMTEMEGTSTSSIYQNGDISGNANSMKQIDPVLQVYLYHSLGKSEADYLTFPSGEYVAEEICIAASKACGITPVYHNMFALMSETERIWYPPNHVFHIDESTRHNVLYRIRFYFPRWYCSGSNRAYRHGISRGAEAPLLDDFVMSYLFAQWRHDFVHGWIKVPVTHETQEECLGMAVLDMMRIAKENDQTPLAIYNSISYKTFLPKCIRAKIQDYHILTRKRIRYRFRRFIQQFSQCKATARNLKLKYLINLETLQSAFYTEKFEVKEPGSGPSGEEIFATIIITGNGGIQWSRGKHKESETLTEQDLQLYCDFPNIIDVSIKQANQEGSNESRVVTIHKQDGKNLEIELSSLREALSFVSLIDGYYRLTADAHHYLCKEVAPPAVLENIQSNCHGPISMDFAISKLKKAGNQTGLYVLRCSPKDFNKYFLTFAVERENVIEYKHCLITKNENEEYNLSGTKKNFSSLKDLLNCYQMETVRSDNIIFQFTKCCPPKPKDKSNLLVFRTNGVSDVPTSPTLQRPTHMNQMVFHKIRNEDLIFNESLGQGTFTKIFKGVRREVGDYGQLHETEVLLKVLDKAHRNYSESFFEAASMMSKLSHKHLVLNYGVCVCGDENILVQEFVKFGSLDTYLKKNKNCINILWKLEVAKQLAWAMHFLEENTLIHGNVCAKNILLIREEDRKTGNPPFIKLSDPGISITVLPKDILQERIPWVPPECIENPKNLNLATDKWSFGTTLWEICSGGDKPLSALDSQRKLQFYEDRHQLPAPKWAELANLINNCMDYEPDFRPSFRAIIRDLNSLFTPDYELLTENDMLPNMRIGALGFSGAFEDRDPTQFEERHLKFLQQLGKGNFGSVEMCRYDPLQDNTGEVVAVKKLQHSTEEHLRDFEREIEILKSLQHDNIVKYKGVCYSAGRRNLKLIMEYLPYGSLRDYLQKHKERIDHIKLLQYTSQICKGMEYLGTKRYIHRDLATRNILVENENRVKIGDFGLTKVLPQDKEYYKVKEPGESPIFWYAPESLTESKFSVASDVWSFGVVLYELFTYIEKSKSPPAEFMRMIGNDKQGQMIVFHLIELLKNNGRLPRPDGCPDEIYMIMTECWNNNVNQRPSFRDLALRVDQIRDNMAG

Sequence | phosphorylation enrichment
GFKVRYATGSI [FGFR1_Y210_W213G_YF] | 0.651
KLADMYGGGKD [CDH1_Y876_E880K] | 0.547
HTKKNYGNSSV [HDX_Y197_A193T] | 0.433
TCFDKYTGSTF [FN1_Y101_N104S_YF] | 0.646
ECKASYPGKIT [PRSS3_Y232] | 0.396
GMAHNYRNSSQ [AASS_Y188] | 0.434
EFITRYIASLK [PSMA7_Y110_YF] | 0.695
RKLVDYDSAQH [BIN1_Y150_R154Q] | 0.56
KALKQYRASPS [DDX27_Y763_G766S] | 0.439
DEQKKYYNAMK [SCN5A_Y1494_E1489D] | 0.531
GDLTDYLMKIL [ACTA1_Y190_R185G] | 0.648
ISIFYYAKGQP [MPZ_Y82_H81Y] | 1.36
QNTGDYYDLYG [PTPN11_Y62] | 5.11
PAVGIYNDNIN [CDCP1_Y707] | 0.925
KAEELYIGVTV [EFHC2_Y509] | 0.966
QNTGDYCDLFG [PTPN11_Y62_Y63C_YF] | 1.3
ETGEPYRLSPE [EIF4G1_Y311] | 1
MTYVFYRENLR [NLRP14_Y443] | 1.48
LAVGDYMRRQK [ATM_Y1915_V1913G] | 0.691
ADKAAYLQNLN [MYH1_Y389] | 0.617
RKQQLYIAMEE [CCDC39_Y593_T594I] | 0.7
CTTIHYNFMHN [TP53_Y234_C238H_YF] | 0.799
NVTRKYTRQIL [MAP3K2_Y463] | 0.339
KVDKEYEVHVR [GHR_Y226_R229H] | 0.725
SDFSRYARTSI [TERT_Y949_S948R_YF] | 0.502
GEDLSYGDLPP [IRS1_Y151_V154L] | 1.22
GKGGSYSKAEW [HLA-E_Y341] | 0.567
QNTGDDYDLYG [PTPN11_Y62_Y62D] | 1.9
KIRDWYQRQRP [KRT14_Y151] | 0.553

These sequences were tested against MERTK (UniProt Q12866) in the same assay as above.
Chain of MERTK (Q12866 whole entry, looked up): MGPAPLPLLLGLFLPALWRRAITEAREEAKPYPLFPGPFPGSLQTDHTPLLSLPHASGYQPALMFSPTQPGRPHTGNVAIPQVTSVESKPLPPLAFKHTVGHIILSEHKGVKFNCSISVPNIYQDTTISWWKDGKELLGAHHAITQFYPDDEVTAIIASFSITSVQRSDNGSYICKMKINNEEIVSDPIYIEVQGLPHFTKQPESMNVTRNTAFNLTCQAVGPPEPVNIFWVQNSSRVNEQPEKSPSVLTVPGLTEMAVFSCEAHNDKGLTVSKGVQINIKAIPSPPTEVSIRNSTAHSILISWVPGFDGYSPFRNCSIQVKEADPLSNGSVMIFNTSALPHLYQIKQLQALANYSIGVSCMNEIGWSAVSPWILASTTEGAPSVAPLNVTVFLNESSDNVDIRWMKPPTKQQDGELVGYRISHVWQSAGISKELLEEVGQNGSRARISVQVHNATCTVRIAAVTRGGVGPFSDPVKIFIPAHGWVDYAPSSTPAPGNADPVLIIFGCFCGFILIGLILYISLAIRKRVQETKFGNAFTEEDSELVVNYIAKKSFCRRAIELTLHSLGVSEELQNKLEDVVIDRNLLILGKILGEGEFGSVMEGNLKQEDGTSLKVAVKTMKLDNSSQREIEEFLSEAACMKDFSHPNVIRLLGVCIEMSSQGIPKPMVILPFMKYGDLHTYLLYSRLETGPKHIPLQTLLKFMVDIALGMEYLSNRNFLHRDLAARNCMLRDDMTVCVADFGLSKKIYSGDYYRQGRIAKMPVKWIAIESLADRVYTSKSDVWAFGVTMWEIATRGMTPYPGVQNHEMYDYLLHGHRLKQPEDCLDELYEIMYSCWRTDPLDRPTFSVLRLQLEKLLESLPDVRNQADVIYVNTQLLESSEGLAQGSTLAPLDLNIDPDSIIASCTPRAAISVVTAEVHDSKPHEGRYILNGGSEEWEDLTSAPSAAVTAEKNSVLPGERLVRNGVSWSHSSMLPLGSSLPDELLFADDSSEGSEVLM

Sequence | phosphorylation enrichment
GFKVRYATGSI [FGFR1_Y210_W213G_YF] | 0.455
KLADMYGGGKD [CDH1_Y876_E880K] | 0.346
HTKKNYGNSSV [HDX_Y197_A193T] | 0.442
TCFDKYTGSTF [FN1_Y101_N104S_YF] | 0.448
ECKASYPGKIT [PRSS3_Y232] | 0.402
GMAHNYRNSSQ [AASS_Y188] | 0.418
EFITRYIASLK [PSMA7_Y110_YF] | 0.475
RKLVDYDSAQH [BIN1_Y150_R154Q] | 0.565
KALKQYRASPS [DDX27_Y763_G766S] | 0.401
DEQKKYYNAMK [SCN5A_Y1494_E1489D] | 0.572
GDLTDYLMKIL [ACTA1_Y190_R185G] | 0.355
ISIFYYAKGQP [MPZ_Y82_H81Y] | 0.504
QNTGDYYDLYG [PTPN11_Y62] | 4.37
PAVGIYNDNIN [CDCP1_Y707] | 0.641
KAEELYIGVTV [EFHC2_Y509] | 1.42
QNTGDYCDLFG [PTPN11_Y62_Y63C_YF] | 0.806
ETGEPYRLSPE [EIF4G1_Y311] | 0.503
MTYVFYRENLR [NLRP14_Y443] | 0.514
LAVGDYMRRQK [ATM_Y1915_V1913G] | 0.476
ADKAAYLQNLN [MYH1_Y389] | 0.522
RKQQLYIAMEE [CCDC39_Y593_T594I] | 1
CTTIHYNFMHN [TP53_Y234_C238H_YF] | 0.454
NVTRKYTRQIL [MAP3K2_Y463] | 0.319
KVDKEYEVHVR [GHR_Y226_R229H] | 0.416
SDFSRYARTSI [TERT_Y949_S948R_YF] | 0.48
GEDLSYGDLPP [IRS1_Y151_V154L] | 0.543
GKGGSYSKAEW [HLA-E_Y341] | 0.405
QNTGDDYDLYG [PTPN11_Y62_Y62D] | 0.697
KIRDWYQRQRP [KRT14_Y151] | 0.446

These sequences were tested on c-Abl (mouse) in the same assay as above.

Sequence | phosphorylation enrichment
GFKVRYATGSI [FGFR1_Y210_W213G_YF] | 0.541
KLADMYGGGKD [CDH1_Y876_E880K] | 0.528
HTKKNYGNSSV [HDX_Y197_A193T] | 0.331
TCFDKYTGSTF [FN1_Y101_N104S_YF] | 0.537
ECKASYPGKIT [PRSS3_Y232] | 0.489
GMAHNYRNSSQ [AASS_Y188] | 0.313
EFITRYIASLK [PSMA7_Y110_YF] | 0.648
RKLVDYDSAQH [BIN1_Y150_R154Q] | 0.871
KALKQYRASPS [DDX27_Y763_G766S] | 0.552
DEQKKYYNAMK [SCN5A_Y1494_E1489D] | 0.594
GDLTDYLMKIL [ACTA1_Y190_R185G] | 0.56
ISIFYYAKGQP [MPZ_Y82_H81Y] | 1.19
QNTGDYYDLYG [PTPN11_Y62] | 1.1
PAVGIYNDNIN [CDCP1_Y707] | 0.71
KAEELYIGVTV [EFHC2_Y509] | 0.988
QNTGDYCDLFG [PTPN11_Y62_Y63C_YF] | 1.17
ETGEPYRLSPE [EIF4G1_Y311] | 0.893
MTYVFYRENLR [NLRP14_Y443] | 0.791
LAVGDYMRRQK [ATM_Y1915_V1913G] | 0.555
ADKAAYLQNLN [MYH1_Y389] | 0.488
RKQQLYIAMEE [CCDC39_Y593_T594I] | 0.725
CTTIHYNFMHN [TP53_Y234_C238H_YF] | 0.765
NVTRKYTRQIL [MAP3K2_Y463] | 0.397
KVDKEYEVHVR [GHR_Y226_R229H] | 0.576
SDFSRYARTSI [TERT_Y949_S948R_YF] | 0.502
GEDLSYGDLPP [IRS1_Y151_V154L] | 0.899
GKGGSYSKAEW [HLA-E_Y341] | 0.496
QNTGDDYDLYG [PTPN11_Y62_Y62D] | 0.841
KIRDWYQRQRP [KRT14_Y151] | 0.637
